Source: patent US20180231562A1 (UCB, published 2018)

Tests used:
[1] = target: T1, human TNFα in complex with compound (15) (human, UniProt P01375 77-233); assay: SPR (BIAcore T200), against apo human TNFα
T1 construct: also called Human TNFα + compound 15; Human TNFα + compound (15)

[2] = target: T2, human TNFα in complex with compound (39) (human, UniProt P01375 77-233); assay: SPR (BIAcore T200), against apo human TNFα
T2 construct: also called Human TNFα + compound (39); compound-distorted human TNFα
T2 sequence (P01375 77-233 limits assumed, one chain of several): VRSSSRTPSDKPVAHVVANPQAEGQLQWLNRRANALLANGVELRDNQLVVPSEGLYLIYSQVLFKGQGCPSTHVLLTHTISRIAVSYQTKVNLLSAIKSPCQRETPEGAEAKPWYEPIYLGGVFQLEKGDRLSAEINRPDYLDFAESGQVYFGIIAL

T1 sequence (P01375 77-233 limits assumed, one chain of several): as above

selective binding over apo human TNFα (log) [1]: > 2 log
selective binding over apo human TNFα (log) [2]: > 2 log
B1: CA185_01979 (antibody, mouse IgG1, kappa, V domains shown)
VH: EVHLVESGPGLVKPSQSLSLTCSVTGYSITNSYWDWIRKFPGNKMEWMGYINYSGSTGYNPSLKSRISISRDTSNNQFFLQLNSITTEDTATYYCARGTYGYNAYHFDYWGRGVMVTVSS
VL: DIQMTQSPASLSASLEEIVTITCQASQDIGNWLSWYQQKPGKSPHLLIYGTTSLADGVPSRFSGSRSGTQYSLKISGLQVADIGIYVCLQAYSTPFTFGSGTKLEIKR
notes: also called CA185_01979.0; CA185_1979
